Source: paper PMC4633281

Assays:
[1] = biological target: TamA with loop-His6 sequence (E. coli) (UniProt P0ADE4); assay: magnetic contrast neutron reflectometry
[2] = biological target: reconstituted TAM (TamA loop-His6 with purified TamB) in a supported membrane (E. coli) (UniProt P0ADE4); assay: magnetic contrast neutron reflectometry
[3] = biological target: TamA with loop-His6 sequence (E. coli) (UniProt P0ADE4); assay: quartz crystal microbalance with dissipation

Row | Substance | surface excess of Ag43, fold over that with the complete TAM [1] [fold] | volume fraction of Ag43 in the membrane layer [1] [%] | volume fraction of Ag43 in the membrane layer [2] [%] | decrease in frequency (QCM-D) [3] [Hz] | frequency response (QCM-D) [3] [Hz]
1 | Ag43, urea-denatured, purified (from UniProt P39180 53-1039) (natural protein) | 3 | 45 | 11 |  | 
2 | TamB, soluble, purified from the periplasm (domain or fragment) |  |  |  | 95 | 30
